# Measurements taken from patent publication US20170049848A1, “Target for Firmicutes and Related Bacteria: The PRP Protease” (VIRGINIA COMMONWEALTH UNIVERSITY, priority 2014, published 2017).
# Primed or numbered codes have the meaning given here. Where no end group is shown, it is not given here. [ ]: non-standard residue; d: D form. Dnp″ = dinitrophenol quencher on C-terminus; 2Abz = Nc1ccccc1C(=O)O
# T1: 2abz-KLNLQFFASKK-Dnp quenched fluorescent peptide substrate
# T1 chain: KLNLQFFASKK
# Key:
# [1] = system: S. aureus ribosome assembly (70S ribosomes, 50S subunit); test: Polysome analysis (sucrose gradient ribosomal subunit profiles) of over-expression strains; type: cell-based, Staphylococcus aureus; settings: overexpression in S. aureus SA178RI, compared with empty vector
# Experimental: Polysome analysis. Overnight cultures of strains for polysome analysis were inoculated into a flask of media containing inducer and appropriate antibiotics (TSB with 2 μg/ml Tet, 30 μg/ml Chl and 1 mM IPTG) beginning at a 1:100 dilution and grown until they reached a Klett reading of 90 or for 4 hours. As noted above, S. aureus expressing Prp C34A will not grow above Klett 50 for over 8 hours, so this strain was grown at a double volume compared to the others so that an equivalent number of cells could be harvested. Cell pellets from at least 100 ml of culture were resuspended in buffer PA (20 mM Tris pH 7.8, 100 mM NH4Cl, 10 mM MgCl2, 6 mM beta mercaptoethanol), broken by bead beating and then cleared by centrifugation for 10 minutes at 13000 rpm at 4° C. The clarified cell lysates were applied to the top of 10-40% sucrose gradients in buffer PA. The gradients were centrifuged for 17 hours at 19000 rpm on an SW-28 rotor at 4° C. Gradients were analyzed for absorbance at 254 nm using a Biocomp Piston Gradient Fractionator with a BIORAD Econo UV Monitor with a Full Scale of 1.0. Data were recorded using DataQ DI-158-UP data acquisition software, as has been previously reported (O'Farrell, 2012). Areas under each peak were calculated using the trapezoid method. […]
# [2] = system: S. aureus strain SA178RI; test: Growth curves of S. aureus strains over-expressing Prp, L27 variants or peptide; type: cell-based, Staphylococcus aureus; settings: T7 plasmid in SA178RI, induced with IPTG, 16 hours at 32° C.; strain still contains native L27 and Prp; compared with wild-type protein or empty vector
# Source text: Bacterial Culture. All S. aureus strains used in this work are derivatives of the phage-cured, restriction-defective strain RN4220 (Kreiswirth, 1983). The S. aureus expression strain SA178RI carries a T7 RNA polymerase expression cassette under lac operator control (D'Elia, 2006). The plasmid used for expression in SA178RI was pG164, an E. coli-S. aureus shuttle vector carrying the T7 late promoter into which a lac operator, a multiple cloning site, an optimized gram-positive ribosome binding site, and a constitutively expressed copy of the lac repressor gene were introduced (D'Elia, 2006). S. aureus strains were grown in Trypticase Soy Broth (TSB) (Remel, Lenexa, Kans.) or Brain Heart Infusion (BHI) (Remel, Lenexa, Kans.) at 32° C.
# For growth curve analysis of mutant over-expression strains, overnight cultures were inoculated directly into media containing inducer and appropriate antibiotics (TSB with 2 μg/ml tetracycline, 30 μg/ml chloramphenicol and 1 mM IPTG) and monitored at OD600 for 16 hours in a 96 well plate format Biotek Microplate reader.
# Both L27 and Prp are essential in S. aureus. One common approach is to examine the effects of mutations in essential genes is to over-express mutant allele and assess the resulting phenotypes. […]
# [3] = Stability of quenched peptide substrate in solution; type: physicochemical; settings: monitored in solution over time, without enzyme
# Source text: (§1) Development of Prp Assay In order to study Prp enzymology in vitro, an assay was designed using a quenched fluorescent peptide substrate derived from the cleavage motif on L27. The peptide KLNLQFFASKK (GI:15927225; SEQ ID NO:1) was chosen for its content of hydrophilic residues and fluorophore 2-amino benzoic acid (2-abz) was conjugated to the N terminus, with a dinitrophenol (Dnp) quencher conjugated to the C-terminus. The resulting peptide substrate (2abz-KLNLQFFASKK-Dnp; SEQ ID NO:1) was ordered from United Peptide in Herndon, Va. (now United Biosystems). The substrate was initially resuspended to 2 mM with a buffer containing 25 mM Tris pH8 and 300 mM NaCl. Fluorescence was measured using an excitation wavelength of 325 nm and an emission wavelength of 425 nm using a Photon Technology International QuantaMaster steady-state fluorescent spectrometer. Prp was initially purified and analyzed as a His6-SUMO N-terminal fusion protein from plasmid pEW34. His6-SUMO fusions were also made of PrpC34A (pEW39) and PrpC34S (pEW40).
# The amino acid sequence of the substrate was selected to maximize its hydrophilic residue content, aiming for the greatest possible peptide solubility. […] The assay allows us to determine Prp kinetics, and the effects of any mutants on the Km or Kcat.
# [4] = target: Staphylococcus aureus L27 F8A-F9A with C-terminal Myc and His6 tags (un-cleavable), Q2FXT0
# [5] = system: peptide substrate 2abz-KLNLQFFASKK-Dnp (L27 cleavage motif); test: Quenched fluorescent peptide Prp assay; type: biochemical, Staphylococcus aureus; settings: N-terminal His6-SUMO fusion proteins; excitation 325 nm, emission 425 nm
# Source text: as §1, with “His6-SUMO fusions were also made of PrpC34A (pEW39) and PrpC34S (pEW40).” left out
# In order to test the predictions that our model makes regarding residues important to substrate binding and catalysis and ultimately to search for inhibitors, it was necessary to design a high throughput-capable continuous fluorescent assay. […] In this type of assay, when the substrate is cleaved the fluorophore is released from its quenching partner and fluorescence readings at the fluorophore emission wavelength increase with time. […]
# [6] = target: T1, 2abz-KLNLQFFASKK-Dnp quenched …
molecule,measurement,setting,value
MLKLNLQFF,effect on ribosomal subunit profile,[1],no anomalies
same,effect on S. aureus growth upon overexpression,[2],pronounced lag in the middle of the exponential growth phase
"2abz-KLNLQFFASKK-Dnp ([2Abz]KLNLQFFASKK-{Dnp″}) [quenched fluorescent peptide substrate, 2-amino benzoic acid at N terminus, dinitrophenol quencher at C-terminus]",stability of peptide in solution,[3],stable and did not self-cleave or change fluorescence over time
"Staphylococcus aureus Prp (phage-related ribosomal protease), wild type, untagged (protein) MITVDITVNDEGKVTDVIMDGHADHGEYGHDIVCAGASAVLFGSVNAIIGLTSERPDINYDDNGGHFHIRSVDTNNDEAQLILQTMLVSLQTIEEEYNENIRLNYK",N-terminal cleavage of L27 (Western blot),[4],this protein with N-terminal residues […] was no longer cleaved by Prp via Western blot
"wild-type Prp: S. aureus phage-related ribosomal protease, cysteine protease that cleaves L27 (protein) MITVDITVNDEGKVTDVIMDGHADHGEYGHDIVCAGASAVLFGSVNAIIGLTSERPDINYDDNGGHFHIRSVDTNNDEAQLILQTMLVSLQTIEEEYNENIRLNYK",effect on ribosomal subunit profile,[1],did not deviate significantly from empty vector
same,fluorescence increase / catalysis with quenched peptide substrate,[5],fluorescence increase only occurred in the presence of wild type Prp
His6-SUMO-Prp N-terminal fusion protein (wild type) (protein) MITVDITVNDEGKVTDVIMDGHADHGEYGHDIVCAGASAVLFGSVNAIIGLTSERPDINYDDNGGHFHIRSVDTNNDEAQLILQTMLVSLQTIEEEYNENIRLNYK,fluorescence increase in the quenched fluorescent peptide assay,[6],fluorescence increase only occurred in the presence of wild type Prp fusion proteins
